# Data taken from publication PMC9873573, “Cryo-EM structure of the respiratory I + III2 supercomplex from Arabidopsis thaliana at 2 Å resolution” (Nature Plants, 2022).
# T1: complex I, FMN / NADH site (51 kDa subunit), in the I + III2 supercomplex (Arabidopsis thaliana, UniProt Q9FNN5)
# T1 construct: gene At5g08530; native supercomplex; tested as whole I + III2 assembly of 68 subunits
# T1 sequence (Q9FNN5 31-486): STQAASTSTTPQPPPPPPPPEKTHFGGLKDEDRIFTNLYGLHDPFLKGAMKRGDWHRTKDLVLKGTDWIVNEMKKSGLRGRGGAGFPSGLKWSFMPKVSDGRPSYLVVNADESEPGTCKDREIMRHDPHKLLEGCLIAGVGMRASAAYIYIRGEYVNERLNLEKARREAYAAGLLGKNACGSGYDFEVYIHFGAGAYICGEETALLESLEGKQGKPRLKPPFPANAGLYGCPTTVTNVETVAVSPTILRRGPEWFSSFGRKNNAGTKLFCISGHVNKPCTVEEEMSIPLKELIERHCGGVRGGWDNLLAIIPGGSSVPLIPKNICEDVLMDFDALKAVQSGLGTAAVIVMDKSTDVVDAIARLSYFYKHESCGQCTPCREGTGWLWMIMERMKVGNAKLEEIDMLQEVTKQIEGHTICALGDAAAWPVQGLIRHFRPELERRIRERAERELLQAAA
# T2: complex I core subunit ND5 (Arabidopsis thaliana (endogenous in …, UniProt P29388 1-669))
# T2 sequence (looked up): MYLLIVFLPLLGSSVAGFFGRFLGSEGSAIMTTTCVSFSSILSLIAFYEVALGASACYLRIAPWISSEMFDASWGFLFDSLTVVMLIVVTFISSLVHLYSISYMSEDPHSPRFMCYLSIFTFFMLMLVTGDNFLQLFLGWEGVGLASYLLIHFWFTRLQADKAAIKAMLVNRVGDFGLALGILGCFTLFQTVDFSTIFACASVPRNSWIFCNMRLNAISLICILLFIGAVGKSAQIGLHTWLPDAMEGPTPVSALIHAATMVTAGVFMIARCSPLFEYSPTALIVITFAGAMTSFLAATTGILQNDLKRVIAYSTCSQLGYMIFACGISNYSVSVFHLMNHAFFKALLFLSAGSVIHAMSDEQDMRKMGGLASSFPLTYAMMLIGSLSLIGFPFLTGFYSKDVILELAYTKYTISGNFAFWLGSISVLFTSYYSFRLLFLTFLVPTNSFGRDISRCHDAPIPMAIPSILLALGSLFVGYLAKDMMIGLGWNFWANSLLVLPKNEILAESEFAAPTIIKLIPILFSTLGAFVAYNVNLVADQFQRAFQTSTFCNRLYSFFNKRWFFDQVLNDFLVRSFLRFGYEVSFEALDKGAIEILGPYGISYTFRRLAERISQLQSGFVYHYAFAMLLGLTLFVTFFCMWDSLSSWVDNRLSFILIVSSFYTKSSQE
# T3: mitochondrial processing peptidase subunit MPP-α-1 of complex III (Arabidopsis thaliana (endogenous in …, UniProt Q9ZU25 60-503))
# T3 construct: MPP-α, isoform 1 (the dominant isoform, fitted to the map), subunit of Arabidopsis thaliana complex III
# T3 sequence (looked up): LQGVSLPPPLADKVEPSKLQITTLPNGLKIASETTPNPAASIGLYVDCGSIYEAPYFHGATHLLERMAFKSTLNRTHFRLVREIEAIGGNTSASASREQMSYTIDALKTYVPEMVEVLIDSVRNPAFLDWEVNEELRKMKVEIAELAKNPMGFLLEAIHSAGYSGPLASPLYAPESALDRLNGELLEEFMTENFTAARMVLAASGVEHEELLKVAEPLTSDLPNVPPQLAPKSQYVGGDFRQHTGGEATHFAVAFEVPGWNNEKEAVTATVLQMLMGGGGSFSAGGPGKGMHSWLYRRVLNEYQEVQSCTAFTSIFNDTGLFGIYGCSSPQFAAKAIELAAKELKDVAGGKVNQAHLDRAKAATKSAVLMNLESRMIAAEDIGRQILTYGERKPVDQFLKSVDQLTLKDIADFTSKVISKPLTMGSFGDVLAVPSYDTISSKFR
# T4: mitochondrial processing peptidase subunit MPP-β of complex III (Arabidopsis thaliana (endogenous in …, UniProt Q42290 79-531))
# T4 construct: MPP-β, subunit of Arabidopsis thaliana complex III
# T4 sequence (looked up): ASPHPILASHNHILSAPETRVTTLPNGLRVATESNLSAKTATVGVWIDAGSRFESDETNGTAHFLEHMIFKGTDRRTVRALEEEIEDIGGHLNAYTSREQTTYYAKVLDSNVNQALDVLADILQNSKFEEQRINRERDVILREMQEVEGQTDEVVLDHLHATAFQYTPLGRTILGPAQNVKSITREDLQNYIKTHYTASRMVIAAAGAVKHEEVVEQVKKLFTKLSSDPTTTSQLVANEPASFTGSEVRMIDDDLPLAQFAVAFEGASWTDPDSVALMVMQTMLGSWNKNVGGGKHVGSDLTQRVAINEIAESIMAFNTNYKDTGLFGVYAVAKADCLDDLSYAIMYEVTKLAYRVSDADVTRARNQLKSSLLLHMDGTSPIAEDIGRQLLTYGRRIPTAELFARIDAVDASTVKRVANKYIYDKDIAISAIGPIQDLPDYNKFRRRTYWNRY
# B1: complex I subunit B14.7 (natural protein, UniProt O48528 1-159, looked up)
# chain: MDPAEMRYLEEEDGPLMKTIKGSITGFGAGTIYGTILATWKDVPRVERNVALPGLIRTLKMMGTHGLTFAAIGGVYIGVEQLVQNFRSKRDFYNGAIGGFVAGASVLGYRARSIPTAIAAGATLAVTSALIDSGGQTTRVDNGREYYPYTVEKRAEADS
# notes: subunit B14.7 of Arabidopsis thaliana mitochondrial complex I (membrane arm); absent from the earlier structures of free plant complex I; also called B14.7 kDa subunit
# B2: complex I subunit B22 (natural protein, UniProt Q945M1 1-117, looked up)
# chain: MSGVSTAAYFARRAAQKERVRILYRRALKDTLNWAVHRHIFYRDASDLREKFNVNQDVEDVDRIDKLIAHGEAEYNKWRHPDPYIVPWAPGGSKFCRNPTPPAGIEIVYNYGLEDNP
# notes: accessory subunit B22 of Arabidopsis thaliana mitochondrial complex I (membrane arm)
# B3: complex III subunit QCR8-1 (natural protein, UniProt Q9SG91 1-72, looked up)
# chain: MGKQPVKLKAVVYALSPFQQKIMTGLWKDLPEKIHHKVSENWISATLLVTPVVGTYWYAQYFKEQEKLEHRF
# notes: QCR8, isoform 1 (the dominant isoform, fitted to the map), accessory subunit of Arabidopsis thaliana complex III
# B4: complex III subunit QCR6-1 (natural protein, UniProt Q0WWE3 1-69, looked up)
# chain: MADDEVVDPKKYLEESCKPKCVKPLLEYQACVKRIQGDDSGHKHCTGQYFDYWQCIDKCVAPKLFAKLK
# notes: QCR6, isoform 1 (the dominant isoform, fitted to the map), accessory subunit of Arabidopsis thaliana complex III
# Legend:
# [1] = target: T1, complex I, FMN / NADH site (51 kDa subunit), in the I + III2 supercomplex; assay: cryo-EM structure, […] Å; type: binding; settings: co-purified
# [2] = target: T2, complex I core subunit ND5; assay: cryo-EM structure; native I + III2 supercomplex isolated from digitonin-solubilised Arabidopsis mitochondria (sucrose gradient, Superose 6 in GDN); 30 mM Tris-HCl pH 7.4, 60 mM NaCl, 0.02% GDN; 2.36 Å for the whole supercomplex, 2.03 Å after multibody refinement, 1.9 Å after density modification; settings: both partners purified
# [3] = target: T3, mitochondrial processing peptidase …; assay: as above; settings: both partners purified
# [4] = target: T4, mitochondrial processing peptidase …; assay: as above; settings: both partners purified
# complex I subunit B14.7 = target: B1; assay: as above; settings: both partners purified
molecule,measurement,setting,value
Cc1cc2nc3c(=O)[nH]c(=O)nc-3n(C[C@H](O)[C@H](O)[C@H](O)COP(=O)(O)O)c2cc1C [FMN],"cryo-EM structure, 2 Å",[1],"Complex I: FMN (Flavin mononucleotide), N1a, N1b, N2, N3"
B1,binding result,[2],binds
B2,binding result,[3],binds
same,binding result,[4],binds
B3,binding result,complex I subunit B14.7,binds
B4,binding result,complex I subunit B14.7,binds
